B1: unnamed (protein)
chain: MANPYERGPDPTESSIEAVRGPFAVAQTTVSRLQADGFGGGTIYYPTDTSQGTFGAVAISPGFTAGQESIAWLGPRIASQGFVVITIDTITRLDQPDSRGRQLQAALDHLRTNSVVRNRIDPNRMAVMGHSMGGGGALSAAANNTSLEAAIPLQGWHTRKNWSSVRTPTLVVGAQLDTIAPVSSHSEAFYNSLPSDLDKAYMELRGASHSVSNTPDTTTAKYSIAWLKRFVDDDLRYEQFLCPAPDDFAISEYRSTCPF
B2: unnamed (protein)
chain: MANPYERGPDPTESSIEAVRGPFAVAQTTVSRLQADGFGGGTIYYPTDTSQGTFGAVAISPGFTAGQESIAWLGPRIASQGFVVITIDTITRLDQPDSRGRQLQAALDHLRTNSVVRNRIDPNRMAVMGHSMGGGGALSAAANNTSLEAAIPLQGWHTRKNWSSVRTPTLVVGAQLDTIAPVSSHSEAFYNSLPSDLDKAYMELRGASHNVSNTPDTTTAKYSIAWLKRFVDDDLRYEQFLCPAPDDFAISEYRSTCPF
B3: unnamed (protein)
chain: MANPYERGPDPTESSIEAVRGPFAVAQTTVSRLQADGFGGGTIYYPTDTSQGTFGAVAISPGFTAGQESIAWLGPRIASQGFVVITIDTITRLDQPDSRGRQLQAALDHLRTNSVVRNRIDPNRMAVMGHSMGGGGALSAAANNTSLEAAIPLQGWHTRKNWSSVRTPTLVVGAQLDTIAPVSSHSEAFYNSLPSDLDKAYMELRGASHYVSNTPDTTTAKYSIAWLKRFVDDDLRYEQFLCPAPDDFAISEYRSTCPF
B4: unnamed (protein)
chain: MANPYERGPDPTESSIEAVRGPFAVAQTTVSRLQADGFGGGTIYYPTDTSQGTFGAVAISPGFTAGQESIAWLGPRIASQGFVVITIDTITRLDQPDSRGRQLQAALDHLRTNSVVRNRIDPNRMAVMGHSMGGGGALSAAANNTSLEAAIPLQGWHTRKNWSSVRTPTLVVGAQLDTIAPVSSHSEAFYNSLPSDLDKAYMELRGASHWVSNTPDTTTAKYSIAWLKRFVDDDLRYEQFLCPAPDDFAISEYRSTCPF
B5: unnamed (protein)
chain: MANPYERGPDPTESSIEAVRGPFAVAQTTVSRLQADGFGGGTIYYPTDTSQGTFGAVAISPGFTAGQESIAWLGPRIASQGFVVITIDTITRLDQPDSRGRQLQAALDHLRTNSVVRNRIDPNRMAVMGHSMGGGGALSAAANNTSLEAAIPLQGWHTRKNWSSVRTPTLVVGAQLDTWAPVSSHSEAFYNSLPSDLDKAYMELRGASHLVSNTPDTTTAKYSIAWLKRFVDDDLRYEQFLCPAPDDFAISEYRSTCPF
B6: unnamed (protein)
chain: MANPYERGPDPTESSIEAVRGPFAVAQTTVSRLQADGFGGGTIYYPTDTSQGTFGAVAISPGFTAGQESIAWLGPRIASQGFVVITIDTITRLDQPDSRGRQLQAALDHLRTNSVVRNRIDPNRMAVMGHSMGGGGALSAAANNTSLEAAIPLQGWHTRKNWSSVRTPTLVVGAQLDTIAPVSSHSEAFYNSLPSDLDKAYMELRGASHIVSNTPDTTTAKYSIAWLKRFVDDDLRYEQFLCPAPDDFAISEYRSTCPF
B7: unnamed (protein)
chain: MANPYERGPDPTESSIEAVRGPFAVAQTTVSRLQADGFGGGTIYYPTDTSQGTFGAVAISPGFTAGQESIAWLGPRIASQGFVVITIDTITRLDQPDSRGRQLQAALDHLRTNSVVRNRIDPNRMAVMGHSMGGGGALSAAANNTSLEAAIPLQGWHTRKNWSSVRTPTLVVGAQLDTFAPVSSHSEAFYNSLPSDLDKAYMELRGASHLVSNTPDTTTAKYSIAWLKRFVDDDLRYEQFLCPAPDDFAISEYRSTCPF
B8: unnamed (protein)
chain: MANPYERGPDPTESSIEAVRGPFAVAQTTVSRLQADGFGGGTIYYPTDTSQGTFGAVAISPGFTAGQESIAWLGPRIASQGFVVITIDTITRLDQPDSRGRQLQAALDHLRTNSVVRNRIDPNRMAVMGHSMGGGGALSAAANNTSLEAAIPLQGWHTRKNWSSVRTPTLVVGAQLDTIAPVSSHSEAFYNSLPSDLDKAYMELRGASHKVSNTPDTTTAKYSIAWLKRFVDDDLRYEQFLCPAPDDFAISEYRSTCPF
B9: unnamed (protein)
chain: MANPYERGPDPTESSIEAVRGPFAVAQTTVSRLQADGFGGGTIYYPTDTSQGTFGAVAISPGFTAGQESIAWLGPRIASQGFVVITIDTITRLDQPDSRGRQLQAALDHLRTNSVVRNRIDPNRMAVMGHSMGGGGALSAAANNTSLEAAIPLQGWHTRKNWSSVRTPTLVVGAQLDTIAPVSSHSEAFYNSLPSDLDKAYMELCGASHLVSNTPDTTTAKYSIAWLKRFVDDDLRYEQFLCPAPDDFAICEYRSTCPF
B10: unnamed (protein)
chain: MANPYERGPDPTESSIEAVRGPFAVAQTTVSRLQADGFGGGTIYYPTDTSQGTFGAVAISPGFTAGQESIAWLGPRIASQGFVVITIDTITRFDYPDSRGRQLQAALDHLRTNSVVRNRIDPNRMAVMGHSMGGGGALSAAANNTSLEAAIPLQGWHTRKNWSSVRTPTLVVGAQLDTIAPVSSHSEAFYNSLPSDLDKAYMELRGASHLVSNTPDTTTAKYSIAWLKRFVDDDLRYEQFLCPAPDDFAISEYRSTCPF
B11: unnamed (protein)
chain: MSNPYQRGPNPTRSALTADGPFSVATYTVSRLSVSGFGGGVIYYPTGTSLTFGGIAMSPGYTADASSLAWLGRRLASHGFVVLVINTNSRFDGPDSRASQLSAALNYLRTSSPSAVRARLDANRLAVAGHSMGGGGTLRIAEQNPSLKAAVPLTPWHTDKTFNTSVPVLIVGAEADTVAPVSQHAIPFYQNLPSTTPKVYVELCNASHIAPNSNNAAISVYTISWMKLWVDNDTRYRQFLCNVNDPALCDFRTNNRHCQL
B12: unnamed (protein)
chain: MANPYERGPDPTESSIEAVRGPFAVAQTTVSRLQADGFGGGTIYYPTDTSQGTFGAVAISPGFTAGQESIAWLGPRIASQGFVVITIDTITRLDQPDSRGRQLQAALDHLRTNSVVRNRIDPNRMAVMGHSMGGGGALSAAANNTSLEAAIPLQGWHTRKNWSSVRTPTLVVGAQLDTIAPVSSHSEAFYNSLPSDLDKAYMELRGASHLVSNTPDTTTAKYSIAWLKRFVDDDLRYEQFLCPAPDDFAISEYRSTCPF

Substrate: gfPET
Assay: Proxy for plastic degradation [Relative activity]
Settings: pH 8

| Protein | Proxy for plastic degradation [%] |
| --- | --- |
| B1 | 94 |
| B2 | 97 |
| B3 | 68 |
| B4 | 85 |
| B5 | 23 |
| B6 | 54 |
| B7 | 9 |
| B8 | 48 |

Same assay, conditions: pH 8; part of the chain shown

| Protein | Proxy for plastic degradation [%] |
| --- | --- |
| B9 | 100 |
| B10 | 100 |

Substrate: pcPET (post-consumer)
Assay: Proxy for plastic degradation [Released monomer concentration (HPLC/LC-MS) (MHET+TPA+BHET)]
Settings: pH 8; part of the chain shown

| Protein | Proxy for plastic degradation [mM] |
| --- | --- |
| B9 | 62 |
| B10 | 198 |
| B11 | 90 |
| B12 | 70 |

— the PETadex activity labels (doi:10.1021/acscatal.2c02275)
